The target of data set [1] is T1, LbCas12a-K595Y (Lachnospiraceae bacterium ND2006, K595Y). The experiment in a line: cleavage_in_vitro; PAM ACCC; NEB 2.1, 37C; wt TTTV benchmark 9.2.
For data set [2], the target named is T2, LbCas12a-G532H (Lachnospiraceae bacterium ND2006, G532H). As to the kind of experiment: cleavage_in_vitro; PAM CTTC; NEB 2.1, 37C.
For data set [3], the target named is T3, LbCas12a-T152R (Lachnospiraceae bacterium ND2006, T152R). The experiment in a line: cleavage_in_vitro; PAM CTTC; NEB 2.1, 37C.
Data set [4] addresses T4, LbCas12a-K595W (Lachnospiraceae bacterium ND2006, K595W). The experiment in a line: cleavage_in_vitro; PAM CCCC; NEB 2.1, 37C.
Data set [5] deals with T5, LbCas12a-E159K (Lachnospiraceae bacterium ND2006, E159K). The experiment in a line: cleavage_in_vitro; PAM CCCC; NEB 2.1, 37C.
Data set [6] concerns the target T6, LbCas12a-K538W (Lachnospiraceae bacterium ND2006, K538W). As to the kind of experiment: cleavage_in_vitro; PAM TTTC; NEB 2.1, 37C.
Data set [7] deals with T7, LbCas12a-D535N (Lachnospiraceae bacterium ND2006, D535N). The experiment in a line: cleavage_in_vitro; PAM TTTC; NEB 2.1, 37C.
For data set [8], the target named is T3, LbCas12a-T152R. The experiment in a line: cleavage_in_vitro; PAM GCCC; NEB 2.1, 37C.
For data set [9], the target named is T2, LbCas12a-G532H. As to the kind of experiment: cleavage_in_vitro; PAM TTCA; NEB 2.1, 37C.
Data set [10] addresses T7, LbCas12a-D535N. As to the kind of experiment: cleavage_in_vitro; PAM TTGC; NEB 2.1, 37C.
Data set [11] deals with T8, LbCas12a-K121R (Lachnospiraceae bacterium ND2006, K121R). As to the kind of experiment: cleavage_in_vitro; PAM CCTG; NEB 2.1, 37C.
For data set [12], the target named is T3, LbCas12a-T152R. As to the kind of experiment: cleavage_in_vitro; PAM CCTG; NEB 2.1, 37C.
Data set [13] has as its target T1, LbCas12a-K595Y. As to the kind of experiment: cleavage_in_vitro; PAM GCGC; NEB 2.1, 37C.
For data set [14], the target named is T6, LbCas12a-K538W. The experiment in a line: cleavage_in_vitro; PAM TATC; NEB 2.1, 37C.
In data set [15] the target is T1, LbCas12a-K595Y. As to the kind of experiment: cleavage_in_vitro; PAM TTCG; NEB 2.1, 37C.
Data set [16] deals with T8, LbCas12a-K121R. As to the kind of experiment: cleavage_in_vitro; PAM TTCT; NEB 2.1, 37C.
Data set [17] has as its target T5, LbCas12a-E159K. As to the kind of experiment: cleavage_in_vitro; PAM TTCT; NEB 2.1, 37C.
In data set [18] the target is T6, LbCas12a-K538W. As to the kind of experiment: cleavage_in_vitro; PAM TATA; NEB 2.1, 37C.
Data set [19] deals with T9, LbCas12a-D156Q (Lachnospiraceae bacterium ND2006, D156Q). The experiment in a line: cleavage_in_vitro; PAM GTTC; NEB 2.1, 37C.
A further data set deals with LbCas12a-D122H (Lachnospiraceae bacterium ND2006, D122H). The experiment in a line: cleavage_in_vitro; PAM TCCC; NEB 2.1, 37C.
Data set [20] addresses T4, LbCas12a-K595W. As to the kind of experiment: cleavage_in_vitro; PAM ACGG; NEB 2.1, 37C.
The target of data set [21] is T9, LbCas12a-D156Q. As to the kind of experiment: cleavage_in_vitro; PAM CCTA; NEB 2.1, 37C.

B1: PAMDA protospacer 1 crRNA ; protospacer 1 with ACCC PAM (ssRNA ; dsDNA)
RNA: AAUUUCUACUAAGUGUAGAUGGAAUCCCUUCUGCAGCACCUGG
DNA 1: ACCCGGAATCCCTTCTGCAGCACCTGG
DNA 2: CCAGGTGCTGCAGAAGGGATTCCGGGT
In the case of B1, the activity with LbCas12a-K595Y [1] was 18.7 fold depletion.

B2: PAMDA protospacer 1 crRNA ; protospacer 1 with CTTC PAM (ssRNA ; dsDNA)
RNA: B1 RNA
DNA 1: CTTCGGAATCCCTTCTGCAGCACCTGG
DNA 2: CCAGGTGCTGCAGAAGGGATTCCGAAG
For B2, the results for the activity with LbCas12a-G532H [2] and with LbCas12a-T152R [3] were 15.1 fold depletion and 16.1 fold depletion, respectively.

B3: PAMDA protospacer 1 crRNA ; protospacer 1 with CCCC PAM (ssRNA ; dsDNA)
RNA: B1 RNA
DNA 1: CCCCGGAATCCCTTCTGCAGCACCTGG
DNA 2: CCAGGTGCTGCAGAAGGGATTCCGGGG
On to B3, for which the activity in the data set with LbCas12a-K595W [4] amounted to 11.9 fold depletion; in the data set with LbCas12a-E159K [5], 12.3 fold depletion.

B4: PAMDA protospacer 1 crRNA ; protospacer 1 with TTTC PAM (ssRNA ; dsDNA)
RNA: B1 RNA
DNA 1: TTTCGGAATCCCTTCTGCAGCACCTGG
DNA 2: CCAGGTGCTGCAGAAGGGATTCCGAAA
Take B4: the activity came out at 11.7 fold depletion with LbCas12a-K538W [6] and 10.5 fold depletion with LbCas12a-D535N [7].

B5: PAMDA protospacer 1 crRNA ; protospacer 1 with GCCC PAM (ssRNA ; dsDNA)
RNA: B1 RNA
DNA 1: GCCCGGAATCCCTTCTGCAGCACCTGG
DNA 2: CCAGGTGCTGCAGAAGGGATTCCGGGC
B5: the activity with LbCas12a-T152R [8] stood at 13 fold depletion.

B6: PAMDA protospacer 1 crRNA ; protospacer 1 with TTCA PAM (ssRNA ; dsDNA)
RNA: B1 RNA
DNA 1: TTCAGGAATCCCTTCTGCAGCACCTGG
DNA 2: CCAGGTGCTGCAGAAGGGATTCCTGAA
With B6, in the data set with LbCas12a-G532H [9], the activity was found to be 16.2 fold depletion.

B7: PAMDA protospacer 1 crRNA ; protospacer 1 with TTGC PAM (ssRNA ; dsDNA)
RNA: B1 RNA
DNA 1: TTGCGGAATCCCTTCTGCAGCACCTGG
DNA 2: CCAGGTGCTGCAGAAGGGATTCCGCAA
In turn, B7 registered an activity with LbCas12a-D535N [10] of 10.9 fold depletion.

B8: PAMDA protospacer 1 crRNA ; protospacer 1 with CCTG PAM (ssRNA ; dsDNA)
RNA: B1 RNA
DNA 1: CCTGGGAATCCCTTCTGCAGCACCTGG
DNA 2: CCAGGTGCTGCAGAAGGGATTCCCAGG
B8: the activity with LbCas12a-K121R [11] amounted to 13 fold depletion; in the data set with LbCas12a-T152R [12], 14.8 fold depletion.

B9: PAMDA protospacer 1 crRNA ; protospacer 1 with GCGC PAM (ssRNA ; dsDNA)
RNA: B1 RNA
DNA 1: GCGCGGAATCCCTTCTGCAGCACCTGG
DNA 2: CCAGGTGCTGCAGAAGGGATTCCGCGC
Molecule B9 yielded an activity with LbCas12a-K595Y [13] of 17.5 fold depletion.

B10: PAMDA protospacer 1 crRNA ; protospacer 1 with TATC PAM (ssRNA ; dsDNA)
RNA: B1 RNA
DNA 1: TATCGGAATCCCTTCTGCAGCACCTGG
DNA 2: CCAGGTGCTGCAGAAGGGATTCCGATA
With B10, in the data set with LbCas12a-K538W [14], the activity came to 9.66 fold depletion.

B11: PAMDA protospacer 1 crRNA ; protospacer 1 with TTCG PAM (ssRNA ; dsDNA)
RNA: B1 RNA
DNA 1: TTCGGGAATCCCTTCTGCAGCACCTGG
DNA 2: CCAGGTGCTGCAGAAGGGATTCCCGAA
In the data set with LbCas12a-K595Y [15], B11 registered an activity of 17.8 fold depletion.

B12: PAMDA protospacer 1 crRNA ; protospacer 1 with TTCT PAM (ssRNA ; dsDNA)
RNA: B1 RNA
DNA 1: TTCTGGAATCCCTTCTGCAGCACCTGG
DNA 2: CCAGGTGCTGCAGAAGGGATTCCAGAA
Take B12: the activity worked out at 14.4 fold depletion in the data set with LbCas12a-K121R [16] and 12.7 fold depletion with LbCas12a-E159K [17].

B13: PAMDA protospacer 1 crRNA ; protospacer 1 with TATA PAM (ssRNA ; dsDNA)
RNA: B1 RNA
DNA 1: TATAGGAATCCCTTCTGCAGCACCTGG
DNA 2: CCAGGTGCTGCAGAAGGGATTCCTATA
As for B13, the activity in the data set with LbCas12a-K538W [18] worked out at 10.4 fold depletion.

B14: PAMDA protospacer 1 crRNA ; protospacer 1 with GTTC PAM (ssRNA ; dsDNA)
RNA: B1 RNA
DNA 1: GTTCGGAATCCCTTCTGCAGCACCTGG
DNA 2: CCAGGTGCTGCAGAAGGGATTCCGAAC
For the molecule B14, the activity in the data set with LbCas12a-D156Q [19] was 15.6 fold depletion.

B15: PAMDA protospacer 1 crRNA ; protospacer 1 with TCCC PAM (ssRNA ; dsDNA)
RNA: B1 RNA
DNA 1: TCCCGGAATCCCTTCTGCAGCACCTGG
DNA 2: CCAGGTGCTGCAGAAGGGATTCCGGGA
B15 returned an activity with LbCas12a-D122H of 18.8 fold depletion.

B16: PAMDA protospacer 1 crRNA ; protospacer 1 with ACGG PAM (ssRNA ; dsDNA)
RNA: B1 RNA
DNA 1: ACGGGGAATCCCTTCTGCAGCACCTGG
DNA 2: CCAGGTGCTGCAGAAGGGATTCCCCGT
B16 showed an activity in the data set with LbCas12a-K595W [20] of 11.5 fold depletion.

B17: PAMDA protospacer 1 crRNA ; protospacer 1 with CCTA PAM (ssRNA ; dsDNA)
RNA: B1 RNA
DNA 1: CCTAGGAATCCCTTCTGCAGCACCTGG
DNA 2: CCAGGTGCTGCAGAAGGGATTCCTAGG
B17: in the data set with LbCas12a-D156Q [21], the activity was 13.4 fold depletion.

(Values after patent US20210115421 (published 2021).)
